Source: article PMC10778272 (2023)

Tests used:
[1] = target: T1, GST-Synm-CT (fusion protein of the carboxy-terminus of synemin, amino acids 1464-1565, with GST) (Homo sapiens (Human), UniProt O15061); assay: Western blot overlay
T1 chain: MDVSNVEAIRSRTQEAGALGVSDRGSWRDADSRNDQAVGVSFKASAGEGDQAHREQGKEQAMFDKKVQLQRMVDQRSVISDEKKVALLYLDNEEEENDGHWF

[2] = target: T2, GST-Synm-CTΔ (carboxy-terminally truncated synemin, amino acids 1464-1533, fused to GST) (Homo sapiens (Human), UniProt O15061); assay: Western blot overlay
T2 chain: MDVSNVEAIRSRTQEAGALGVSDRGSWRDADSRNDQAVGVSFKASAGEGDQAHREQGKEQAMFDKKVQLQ

binding result [1]: binds
binding result [2]: no binding
B1: T7-tagged PDZ domain of SYNPO2 (protein)
chain: MGTGDFICISMTGGAPWGFRLQGGKEQKQPLQVAKIRNQSKASGSGLCEGDEVVSINGNPCADLTYPEVIKLMESITDSLQMLIKRPSSGISEALISENENKNLEHLTHGGYVESTTLQIRPATKTQCTEFFLAPVKTEVPLAENQRSGPDCAGSLKEETGPSYQRAPQMPDSQRGRVAE
